Tested on: primary lung epithelium cells
Test: Cytotoxicity (Alamar blue)
Type: cell-based, human
Settings: ~16 hours (overnight), reduced serum conditions
Procedure: FIGS. 11A-11B are graphs showing cytotoxicity against primary lung epithelium cells in serum-free condition. Cells were seeded in complete growth medium (Minimal essential medium supplemented with 10% fetal bovine serum) at near-confluence into a 96-well plate and allowed to settle for 24-hours. Media was then replaced to OptiMEM I reduced serum medium containing peptide or vehicle alone (DBPS) and cells were incubated overnight (16 hours). A resazurin based dye (Alamar blue) was added directly to media and conversion of resazurin to resorufin was evaluated following two hours. % Survival represents the proportion of viable cells in peptide treated cells relative to cells treated with vehicle alone. […] Each peptide was tested in triplicate.
FIG. 12 is a graph showing comparison of toxicities against Lung Primary Epithelial cells and Lung Cancerous Epithelial Cells, derived from H358 cell-line. […] Each peptide was tested in triplicate.
Cytotoxicity. Cells were seeded in complete growth medium (Minimal Essential Medium, MEMα, supplemented with 10% Fetal Bovine Serum) into a culture-treated 96-well plate at a density of 25000 cells per well. After 24 hours, culture media was aspirated and replaced with media containing the selected peptide. No-serum experiments were conducted in Opti-MEM I reduced serum media (ThermoFisher, 31985062) and 10% serum experiments were performed in complete growth medium. In all cases, DBPS was used as a vehicle only control and buffer to serially dilute the peptides. After exposure to the peptides or vehicle-alone for the defined period, Alamar blue dye (resazurin) was added directly to the media and allowed to incubate for two hours. Following incubation, A570/A600 measurements were made to calculate reduction of resazurin dye to resorufin. A ratio of reduction in treated versus untreated cells was calculated in order to determine overall cell viability. The human cells were always maintained in a 37° C. incubator under 5% CO2.

Sequence: RRWKRFFKRWKGGVIGVTFPF (SEQ ID NO: 50) [ATRA1-R3W2-HYD, ATRA1-R3W2 with hydrophobic tail of NA-CATH joined by -GG-]
- concentration decreasing resazurin reduction by 50% (LD50): ~50 µM
- concentration over which significant toxicity was observed: ~50 µM

— patent US11447533B2, “Antimicrobial and anticancer peptides and conjugates and compositions, methods, articles and kits relating thereto” (George Mason Research Foundation, Inc., priority 2018, dated 2022)
